# T1: human FAPα (Fibroblast activation protein alpha), cell surface expressed (human, UniProt Q12884 1-760)
# T1 construct: Endogenous on human lung fibroblasts and CAFs
# T1 sequence: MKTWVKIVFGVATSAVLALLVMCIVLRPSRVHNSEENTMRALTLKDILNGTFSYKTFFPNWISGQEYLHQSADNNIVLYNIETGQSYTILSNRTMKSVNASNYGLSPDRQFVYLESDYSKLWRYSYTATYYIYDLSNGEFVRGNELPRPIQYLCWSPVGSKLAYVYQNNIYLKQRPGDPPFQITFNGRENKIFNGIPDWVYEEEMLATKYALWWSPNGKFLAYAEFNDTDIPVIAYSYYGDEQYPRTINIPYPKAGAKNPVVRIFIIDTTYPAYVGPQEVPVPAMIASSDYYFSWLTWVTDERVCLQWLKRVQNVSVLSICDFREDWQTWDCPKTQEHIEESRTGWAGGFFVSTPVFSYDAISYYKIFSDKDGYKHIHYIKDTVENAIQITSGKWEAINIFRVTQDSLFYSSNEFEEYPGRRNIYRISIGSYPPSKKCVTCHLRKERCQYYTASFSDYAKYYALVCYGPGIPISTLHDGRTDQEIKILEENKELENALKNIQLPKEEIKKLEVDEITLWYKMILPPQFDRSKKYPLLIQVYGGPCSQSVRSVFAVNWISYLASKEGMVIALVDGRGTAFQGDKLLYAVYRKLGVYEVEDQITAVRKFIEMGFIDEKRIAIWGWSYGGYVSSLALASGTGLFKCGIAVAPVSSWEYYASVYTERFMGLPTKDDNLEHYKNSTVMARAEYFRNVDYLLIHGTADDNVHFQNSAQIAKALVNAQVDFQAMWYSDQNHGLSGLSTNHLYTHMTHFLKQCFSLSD
# T2: cynomolgus monkey DR4 with death domain deletion on ExpiCHO-S cells (cynomolgus monkey (Macaca fascicularis))
# T2 construct: also called cynomolgus DR4
# T2 chain: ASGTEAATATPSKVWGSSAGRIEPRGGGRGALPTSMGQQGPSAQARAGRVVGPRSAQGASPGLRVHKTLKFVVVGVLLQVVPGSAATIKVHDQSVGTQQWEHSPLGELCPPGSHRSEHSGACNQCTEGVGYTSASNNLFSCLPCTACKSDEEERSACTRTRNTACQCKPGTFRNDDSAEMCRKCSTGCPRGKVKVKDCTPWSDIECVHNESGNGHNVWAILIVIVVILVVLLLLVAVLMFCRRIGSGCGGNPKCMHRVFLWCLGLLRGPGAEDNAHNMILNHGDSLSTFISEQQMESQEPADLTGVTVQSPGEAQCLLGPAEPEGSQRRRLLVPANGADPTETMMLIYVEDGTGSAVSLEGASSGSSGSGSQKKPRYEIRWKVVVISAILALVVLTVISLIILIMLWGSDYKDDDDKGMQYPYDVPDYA
# B1: IgG1-FAP5-FEAL (antibody)
# heavy: QVQLQQSGAELARPGASVNLSCLASGYTFTNNGINWLKQRTGQGLEWIGEIYPRSTNTLYNEKFKGKATLTADRSSNTAYMELRSLTSEDSAVYFCARTLTAPFAFWGQGTLVTVSSASTKGPSVFPLAPSSKSTSGGTAALGCLVKDYFPEPVTVSWNSGALTSGVHTFPAVLQSSGLYSLSSVVTVPSSSLGTQTYICNVNHKPSNTKVDKRVEPKSCDKTHTCPPCPAPEFEGGPSVFLFPPKPKDTLMISRTPEVTCVVVAVSHEDPEVKFNWYVDGVEVHNAKTKPREEQYNSTYRVVSVLTVLHQDWLNGKEYKCKVSNKALPAPIEKTISKAKGQPREPQVYTLPPSREEMTKNQVSLTCLVKGFYPSDIAVEWESNGQPENNYKTTPPVLDSDGSFLLYSKLTVDKSRWQQGNVFSCSVMHEALHNHYTQKSLSLSPG
# light: QIVLTQSPAIMSASPGELVTMTCSASSGVNFMHWYQQLSGTSPKRWIFDTSKLASGVPARFSGSGSGTSYSLTISSMEAEDAATYYCQQWSFNPPTFGGGTKLEIKRTVAAPSVFIFPPSDEQLKSGTASVVCLLNNFYPREAKVQWKVDNALQSGNSQESVTEQDSKDSTYSLSSTLTLSKADYEKHKVYACEVTHQGLSSPVTKSFNRGEC
# notes: Prior art clone FAP5 (US20090304718A1) with FEAL constant region
# B2: BisG1-DR4-FEAL/b12-FEAR (bispecific antibody, human IgG1, kappa, lambda)
# heavy 1: QVQLQESGPGLVKPSGTLSLTCAVSGGSISSYSWWSWIRQPPGKGLEWIGELYHSGSTNYNPSLKSRVTISVDKSKNQFSLKLRSVTAADTAVYYCVRGVATIDYWGQGTLVTVSSASTKGPSVFPLAPSSKSTSGGTAALGCLVKDYFPEPVTVSWNSGALTSGVHTFPAVLQSSGLYSLSSVVTVPSSSLGTQTYICNVNHKPSNTKVDKRVEPKSCDKTHTCPPCPAPEFEGGPSVFLFPPKPKDTLMISRTPEVTCVVVAVSHEDPEVKFNWYVDGVEVHNAKTKPREEQYNSTYRVVSVLTVLHQDWLNGKEYKCKVSNKALPAPIEKTISKAKGQPREPQVYTLPPSREEMTKNQVSLTCLVKGFYPSDIAVEWESNGQPENNYKTTPPVLDSDGSFLLYSKLTVDKSRWQQGNVFSCSVMHEALHNHYTQKSLSLSPG
# light 1: QSALTQPPSASGSPGQSVTISCTGTSSDVGGYNFVSWYQQDPGKAPKLLIYEVTKRPSGVPDRFSGSKSGNTASLTVSGLQAEDEADYYCSSYAGSNNVMFGGGTKLTVLGQPKAAPSVTLFPPSSEELQANKATLVCLISDFYPGAVTVAWKADSSPVKAGVETTTPSKQSNNKYAASSYLSLTPEQWKSHRSYSCQVTHEGSTVEKTVAPTECS
# heavy 2: QVQLVQSGAEVKKPGASVKVSCQASGYRFSNFVIHWVRQAPGQRFEWMGWINPYNGNKEFSAKFQDRVTFTADTSANTAYMELRSLRSADTAVYYCARVGPYSWDDSPQDNYYMDVWGKGTTVIVSSASTKGPSVFPLAPSSKSTSGGTAALGCLVKDYFPEPVTVSWNSGALTSGVHTFPAVLQSSGLYSLSSVVTVPSSSLGTQTYICNVNHKPSNTKVDKRVEPKSCDKTHTCPPCPAPEFEGGPSVFLFPPKPKDTLMISRTPEVTCVVVAVSHEDPEVKFNWYVDGVEVHNAKTKPREEQYNSTYRVVSVLTVLHQDWLNGKEYKCKVSNKALPAPIEKTISKAKGQPREPQVYTLPPSREEMTKNQVSLTCLVKGFYPSDIAVEWESNGQPENNYKTTPPVLDSDGSFFLYSRLTVDKSRWQQGNVFSCSVMHEALHNHYTQKSLSLSPG
# light 2: EIVLTQSPGTLSLSPGERATFSCRSSHSIRSRRVAWYQHKPGQAPRLVIHGVSNRASGISDRFSGSGSGTDFTLTITRVEPEDFALYYCQVYGASSYTFGQGTKLERKRTVAAPSVFIFPPSDEQLKSGTASVVCLLNNFYPREAKVQWKVDNALQSGNSQESVTEQDSKDSTYSLSSTLTLSKADYEKHKVYACEVTHQGLSSPVTKSFNRGEC
# notes: Fab-arm exchange of IgG1-DR4-FEAL and IgG1-b12-FEAR
# Legend:
# [1] = target: T1, human FAPα (Fibroblast activation …); test: flow cytometry, human lung fibroblasts, n = 1
# Experimental: (§1) Human lung fibroblasts and CAFs (50,000 cells/well) were seeded in 96-Well round bottom plates (Greiner Bio-one, Cat #650101). Antibody dilutions were prepared using fluorescence-activated cell sorting (FACS) buffer, consisting of phosphate buffer saline (PBS, Lonza, Cat #BE17-517Q)+1% Bovine Serum Albumin (BSA, Roche, Cat #10735086001)+0.02% Sodium Azide (Bio-World, Cat #41920044-3). Plates were centrifuged, supernatant was removed, cells were resuspended in 50 μL of human Fc Block (BD, Cat #564220, diluted 1:100 in FACS buffer) and 50 μL of viability stain TO-PRO-3 Iodide (Thermo Fisher, Cat #T3605, diluted 1: 25,000 in FACS buffer), and incubated for 15 min at 4° C. Plates were washed three times with FACS buffer. Plates were centrifuged, supernatant was removed, cells were resuspended in 50 μL of antibody dilutions (concentration range 90-0.0005 μg/mL, three-fold dilution steps using FACS buffer) of BisG1-FAPα-FERL/DR4-FERR, BisG1-FAPα-FERL/b12-FERR, BisG1-b12-FERL/b12-FERR (top six concentrations only for CAFs culture) or IgG1-FAPα-FERL (top four concentrations only for CAFs culture) and incubated for 30 min at 4° C. Cells were washed three times with FACS buffer and resuspended in 50 μL of Fluorescein isothiocyanate (FITC)-labeled polyclonal antibody goat anti-mouse IgG1 (Jackson Immuno Research, Cat #109-096-097, diluted 1:100 in FACS buffer). After 30 min incubation at 4° C., cells were washed twice with FACS buffer and resuspended in FACS buffer. Antibody binding to viable cells (TO-PRO-3 negative) was analyzed by flow cytometry on a FACSCelesta™ (BD biosciences) and data were processed using FlowJo_v10.8.1 (FlowJo LLC). Geomean fluorescence intensity, gMFI, was determined and visualized using GraphPad Prism. Binding curves were analyzed using nonlinear regression analysis. The concentration (pg/mL) at which 50% of the maximal effect was observed (EC₅₀) was derived from the fitted curves.
# (§2) Binding of FAPα-targeting monoclonal antibody clones, IgG1-FAPα-FEAL and IgG1-FAP5-FEAL, and bispecific antibodies carrying a binding arm derived from the two FAPα-binding clones (BisG1-FAPα-FEAL/b12-FEAR and BisG1-FAP5-FEAL/b12-FEAR) to human lung fibroblasts, which endogenously express FAPα, was compared and analyzed by flow cytometry.
# [2] = target: T1, human FAPα (Fibroblast activation …); test: flow cytometry, human lung fibroblasts, n = 2
# Experimental: as §1, with “After 30 min incubation at 4° C., cells were washed twice with FACS buffer and resuspended in FACS buffer.” left out, “The concentration (pg/mL) at which 50% of the maximal effect was observed (EC₅₀) was derived from the fitted curves.” left out
# as §2
# [3] = target: T3, human DR4 with death domain deletion on ExpiCHO-S cells (human); test: flow cytometry, ExpiCHO-S cells expressing human DR4, n = 1
# Experimental: (§3) Binding of BisG1-FAPα-FERL/DR4-FERR, BisG1-DR4-FEAL/b12-FEAR and IgG1-DR4-FERR to DR4 of various species commonly used for nonclinical toxicology studies was assessed by flow cytometry using ExpiCHO-S cells transiently expressing DR4 from different animal species. In contrast to other species, rodents only express one DR which has highest homology with human DR5. Therefore, ExpiCHO-S cells transiently expressing rat and mouse DR protein were used instead. All DR constructs lack the intracellular DD to avoid apoptosis of transfected cells upon DR(4) activation. IgG1-b12 was used as negative control.
# [4] = target: T3, human DR4 with death domain deletion on …; test: flow cytometry, ExpiCHO-S cells expressing human DR4, n = 2
# Experimental: as §3
# [5] = target: T2, cynomolgus monkey DR4 with death domain …; test: flow cytometry on ExpiCHO-S cells transiently expressing cynomolgus monkey DR4 (death domain deleted), gMFI PE
# [6] = target: T3, human DR4 with death domain deletion on …; test: flow cytometry, ExpiCHO-S cells expressing human DR4, average ± SEM
Binder,EC50 [1],EC50 [2],EC50 [3],EC50 [4],EC50 (read off the curve) [5],EC50 [6]
B1,0.15 µg/mL,0.2 µg/mL,–,–,–,–
B2,–,–,1.02 µg/mL,1.23 µg/mL,~1 µg/mL,1.12 µg/mL

# — patent US20250002610A1 (Genmab, published 2025)
